From patent publication US20170059578A1 (ROCHE SEQUENCING SOLUTIONS, published 2017)

Target: T1, streptavidin (UniProt P22629 37-163, limits assumed)
T1 construct: Applied in solution to the peptide array and detected by fluorescence; also called streptavidin receptor; receptor
Experiment: peptide array, fluorescence signal of bound streptavidin

T1 sequence (P22629 37-163 limits assumed): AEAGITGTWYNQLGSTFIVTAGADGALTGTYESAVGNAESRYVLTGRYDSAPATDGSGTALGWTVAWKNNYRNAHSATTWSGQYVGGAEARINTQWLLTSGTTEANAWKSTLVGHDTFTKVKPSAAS

Row | Binder | binding result
1 | GFEDYLGEYG (Deletion made by design ([-]) or imitated by synthesis conditions [1]; (solvent alone) and [2]; (no reagent); also called His deletion peptide; synthesis conditions [1] and [2]) [… (SEQ ID NO:1) with deletion of the His at the 10th position from the N-terminus] | no binding
2 | GWTHPFEQKG (Deletion made by design ([-]) or imitated by synthesis conditions [1]; (solvent alone) and [2]; (no reagent); also called deletion control peptide; synthesis conditions [1] and [2]) [… (SEQ ID NO:2) with deletion of the Met at the 6th position from the N-terminus] | no binding
